# Experimental data taken from US20250145711A1 (Janssen / Centocor, published 2025).
# Where a chain is given by its changes, count along the chain named. Names and notes keep the numbering of the source.
# B1: PS3B931 (bispecific antibody, human IgG1, kappa, lambda, L234A L235A)
# heavy 1: EVQLVESGGGLVKPGGSLRLSCAASGFTFSRYNMNWVRQAPGKGLEWVSSISTSSNYIYYADSVKGRFTFSRDNAKNSLDLQMSGLRAEDTAIYYCTRGWGPFDYWGQGTLVTVSSASTKGPSVFPLAPSSKSTSGGTAALGCLVKDYFPEPVTVSWNSGALTSGVHTFPAVLQSSGLYSLSSVVTVPSSSLGTQTYICNVNHKPSNTKVDKKVEPKSCDKTHTCPPCPAPEAAGGPSVFLFPPKPKDTLMISRTPEVTCVVVSVSHEDPEVKFNWYVDGVEVHNAKTKPREEQYNSTYRVVSVLTVLHQDWLNGKEYKCKVSNKALPAPIEKTISKAKGQPREPQVYTLPPSREEMTKNQVSLTCLVKGFYPSDIAVEWESNGQPENNYKTTPPVLDSDGSFLLYSKLTVDKSRWQQGNVFSCSVMHEALHNHYTQKSLSLSP
# light 1: DIQMTQSPSSLSASVGDRVTITCRARQSIGTAIHWYQQKPGKAPKLLIKYASESISGVPSRFSGSGSGTDFTLTISSLQPEDFATYYCQQSGSWPYTFGQGTKLEIKRTVAAPSVFIFPPSDEQLKSGTASVVCLLNNFYPREAKVQWKVDNALQSGNSQESVTEQDSKDSTYSLSSTLTLSKADYEKHKVYACEVTHQGLSSPVTKSFNRGEC
# heavy 2: EVQLVESGGGLVKPGGSLRLSCAASGFTFSRYNMNWVRQAPGKGLEWVSSINSNSRYIYYADSVKGRFTISRDSAKNSLYLQMNSLRAEDTAVYYCAKTMGDYYYYYGMDVWGQGTTVTVSSASTKGPSVFPLAPSSKSTSGGTAALGCLVKDYFPEPVTVSWNSGALTSGVHTFPAVLQSSGLYSLSSVVTVPSSSLGTQTYICNVNHKPSNTKVDKKVEPKSCDKTHTCPPCPAPEAAGGPSVFLFPPKPKDTLMISRTPEVTCVVVSVSHEDPEVKFNWYVDGVEVHNAKTKPREEQYNSTYRVVSVLTVLHQDWLNGKEYKCKVSNKALPAPIEKTISKAKGQPREPQVYTLPPSREEMTKNQVSLTCLVKGFYPSDIAVEWESNGQPENNYKTTPPVLDSDGSFFLYSRLTVDKSRWQQGNVFSCSVMHEALHNHYTQKSLSLSPG
# light 2: SSELTQPPSVSGAPGQRVTISCAGSLSNIGAGYDVHWYQQLPGTAPKLLIYGNINRLSGVPERFSGSKSGTSASLAITGLQAEDGADYYCQSYDSSLSSYVFGTGTKVTVLGQPKAAPSVTLFPPSSEELQANKATLVCLISDFYPGAVTVAWKADSSPVKAGVETTTPSKQSNNKYAASSYLSLTPEQWKSHRSYSCQVTHEGSTVEKTVAPTECS
# notes: FAB-A: CD3B2183 (CD3W245); FAB-B: PSMB890
# B2: PS3B913 (bispecific antibody, human IgG1, lambda, L234A L235A)
# heavy 1: QVQLQQSGPRLVRPSQTLSLTCAISGDSVFNNNAAWSWIRQSPSRGLEWLGRTYYRSKWLYDYAVSVKSRITVNPDTSRNQFTLQLNSVTPEDTALYYCARGYSSSFDYWGQGTLVTVSSASTKGPSVFPLAPSSKSTSGGTAALGCLVKDYFPEPVTVSWNSGALTSGVHTFPAVLQSSGLYSLSSVVTVPSSSLGTQTYICNVNHKPSNTKVDKKVEPKSCDKTHTCPPCPAPEAAGGPSVFLFPPKPKDTLMISRTPEVTCVVVSVSHEDPEVKFNWYVDGVEVHNAKTKPREEQYNSTYRVVSVLTVLHQDWLNGKEYKCKVSNKALPAPIEKTISKAKGQPREPQVYTLPPSREEMTKNQVSLTCLVKGFYPSDIAVEWESNGQPENNYKTTPPVLDSDGSFLLYSKLTVDKSRWQQGNVFSCSVMHEALHNHYTQKSLSLSPG
# light 1: QSALTQPASVSGSPGQSITISCTGTSSNIGTYKFVSWYQQHPDKAPKVLLYEVSKRPSGVSSRFSGSKSGNTASLTISGLQAEDQADYHCVSYAGSGTLLFGGGTKLTVLGQPKAAPSVTLFPPSSEELQANKATLVCLISDFYPGAVTVAWKADSSPVKAGVETTTPSKQSNNKYAASSYLSLTPEQWKSHRSYSCQVTHEGSTVEKTVAPTECS
# heavy 2: not shown
# light 2: not shown
# notes: FAB-A: CD3B891 (CD3B376 - K477); FAB-B: PSMB891
# B3: BC3B114 (bispecific antibody, human IgG1, kappa, L234A L235A)
# chain: QVQLVQSGAEVKKPGSSVKVSCKASGYTFTRSTMHWVRQAPGQGLEWMGYINPSSAYTNYAQKFQGRVTLTADKSTSTAYMELSSLRSEDTAVYYCASPQVHYDYQGFPYWGQGTLVTVSSGGSEGKSSGSGSESKSTGGSEIVLTQSPATLSASPGERVTLSCSASSSVSYMNWYQQKPGQAPRRWIYDSSKLASGVPARFSGSGSGRDYTLTISSLEPEDFAVYYCQQWSRNPPTFGGGTKVEIKEPKSSDKTHTCPPCPAPEAAGGPSVFLFPPKPKDTLMISRTPEVTCVVVSVSHEDPEVKFNWYVDGVEVHNAKTKPREEQYNSTYRVVSVLTVLHQDWLNGKEYKCKVSNKALPAPIEKTISKAKGQPREPQVYVYPPSREEMTKNQVSLTCLVKGFYPSDIAVEWESNGQPENNYKTTPPVLDSDGSFALVSKLTVDKSRWQQGNVFSCSVMHEALHNHYTQKSLSLSPG
# heavy: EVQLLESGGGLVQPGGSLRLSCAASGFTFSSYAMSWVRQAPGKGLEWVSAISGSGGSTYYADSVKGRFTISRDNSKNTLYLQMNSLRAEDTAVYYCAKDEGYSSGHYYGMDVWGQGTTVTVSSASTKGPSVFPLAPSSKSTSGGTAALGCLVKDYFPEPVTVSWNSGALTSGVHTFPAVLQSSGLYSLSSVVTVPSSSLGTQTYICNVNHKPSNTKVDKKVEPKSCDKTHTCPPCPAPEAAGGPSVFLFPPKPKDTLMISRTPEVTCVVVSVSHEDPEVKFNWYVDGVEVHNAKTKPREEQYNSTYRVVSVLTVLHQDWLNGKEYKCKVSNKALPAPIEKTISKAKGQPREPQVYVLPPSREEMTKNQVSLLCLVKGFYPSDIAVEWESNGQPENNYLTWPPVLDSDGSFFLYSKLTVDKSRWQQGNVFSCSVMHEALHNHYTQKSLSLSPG
# light: EIVLTQSPGTLSLSPGERATLSCRASQSISSSFLTWYQQKPGQAPRLLIYGASSRATGIPDRFSGGGSGTDFTLTISRLEPEDFAVYYCQHYGSSPMYTFGQGTKLEIKRTVAAPSVFIFPPSDEQLKSGTASVVCLLNNFYPREAKVQWKVDNALQSGNSQESVTEQDSKDSTYSLSSTLTLSKADYEKHKVYACEVTHQGLSSPVTKSFNRGEC
# notes: IgG1 BCMAxCD3; HC1: CD3B2089-N106Q HL scFv-Fc; also called BC3B114.001; B2089 HL NtoQ
# B4: BC3B123 (bispecific antibody, human IgG1, kappa, L234A L235A)
# chain: EIVLTQSPATLSASPGERVTLSCSASSSVSYMNWYQQKPGQAPRRLIYDSSKLASGVPARFSGSGSGRDYTLTISSLEPEDFAVYYCQQWSRNPPTFGGGTKVEIKGGSEGKSSGSGSESKSTGGSQVQLVQSGAEVKKPGSSVKVSCKASGYTFTRSTMHWVKQAPGQGLEWMGYINPSSAYTNYNQKFQGRVTLTADKSTSTAYMELSSLRSEDTAVYYCASPQVHYDYQGFPYWGQGTLVTVSSEPKSSDKTHTCPPCPAPEAAGGPSVFLFPPKPKDTLMISRTPEVTCVVVSVSHEDPEVKFNWYVDGVEVHNAKTKPREEQYNSTYRVVSVLTVLHQDWLNGKEYKCKVSNKALPAPIEKTISKAKGQPREPQVYVYPPSREEMTKNQVSLTCLVKGFYPSDIAVEWESNGQPENNYKTTPPVLDSDGSFALVSKLTVDKSRWQQGNVFSCSVMHEALHNHYTQKSLSLSPG
# heavy: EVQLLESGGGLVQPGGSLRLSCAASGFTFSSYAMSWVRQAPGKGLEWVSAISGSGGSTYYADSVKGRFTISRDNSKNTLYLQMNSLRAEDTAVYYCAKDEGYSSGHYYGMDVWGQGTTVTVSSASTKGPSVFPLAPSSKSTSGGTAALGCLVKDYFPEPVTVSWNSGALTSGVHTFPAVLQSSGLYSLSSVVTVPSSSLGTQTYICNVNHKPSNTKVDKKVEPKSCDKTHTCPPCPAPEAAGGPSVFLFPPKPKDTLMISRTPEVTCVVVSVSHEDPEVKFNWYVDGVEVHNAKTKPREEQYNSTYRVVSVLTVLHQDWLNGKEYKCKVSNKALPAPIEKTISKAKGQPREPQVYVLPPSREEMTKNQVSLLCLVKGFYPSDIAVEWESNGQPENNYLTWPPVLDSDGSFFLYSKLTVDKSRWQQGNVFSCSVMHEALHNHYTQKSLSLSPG
# light: B3 light
# notes: IgG1 BCMAxCD3; HC1: CD3B2051-N106Q LH scFv-Fc; also called BC3B123.001; B2051 LH NtoQ
# B5: BC3B128 (bispecific antibody, human IgG1, kappa, L234A L235A)
# chain: B4 chain with L46W, K164R, N187A
# heavy: not shown
# light: B3 light
# notes: IgG1 BCMAxCD3; HC1: CD3B2089-N106Q LH scFv-Fc; also called BC3B128.001; B2089 LH NtoQ
# B6: BC3B122 (bispecific antibody, human IgG1, kappa, L234A L235A)
# chain: B4 chain with Q232G
# heavy: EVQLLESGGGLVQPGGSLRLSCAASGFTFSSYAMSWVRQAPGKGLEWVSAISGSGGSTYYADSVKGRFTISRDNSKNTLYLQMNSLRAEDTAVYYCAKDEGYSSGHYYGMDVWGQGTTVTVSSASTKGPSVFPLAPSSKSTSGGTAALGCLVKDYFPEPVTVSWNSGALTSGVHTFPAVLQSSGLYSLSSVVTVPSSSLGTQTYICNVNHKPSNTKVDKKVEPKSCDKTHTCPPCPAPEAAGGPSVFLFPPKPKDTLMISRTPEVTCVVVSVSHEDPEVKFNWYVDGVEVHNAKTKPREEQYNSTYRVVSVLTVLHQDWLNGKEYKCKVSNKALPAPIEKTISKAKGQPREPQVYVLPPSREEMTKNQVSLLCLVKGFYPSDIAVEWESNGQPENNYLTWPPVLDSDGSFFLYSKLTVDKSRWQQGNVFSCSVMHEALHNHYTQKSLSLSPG
# light: B3 light
# notes: IgG1 BCMAxCD3; HC1: CD3B2051-N106G LH scFv-Fc; also called BC3B122.001; B2051 LH NtoG
# B7: BC3B115 (bispecific antibody, human IgG1, kappa, L234A L235A)
# chain: B3 chain with Q106S
# heavy: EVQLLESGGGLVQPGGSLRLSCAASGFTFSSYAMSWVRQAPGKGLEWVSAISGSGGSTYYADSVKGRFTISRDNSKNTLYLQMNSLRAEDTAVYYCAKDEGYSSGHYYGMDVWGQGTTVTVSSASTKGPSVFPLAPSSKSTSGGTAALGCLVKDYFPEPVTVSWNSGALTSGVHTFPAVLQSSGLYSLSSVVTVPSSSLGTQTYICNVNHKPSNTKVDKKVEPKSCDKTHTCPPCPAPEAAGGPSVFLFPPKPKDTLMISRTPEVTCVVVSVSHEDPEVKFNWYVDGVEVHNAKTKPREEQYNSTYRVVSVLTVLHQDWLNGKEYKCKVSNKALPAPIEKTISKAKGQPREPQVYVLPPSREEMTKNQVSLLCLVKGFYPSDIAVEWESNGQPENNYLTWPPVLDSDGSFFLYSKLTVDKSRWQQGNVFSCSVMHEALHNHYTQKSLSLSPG
# light: B3 light
# notes: IgG1 BCMAxCD3; HC1: CD3B2089-N106S HL scFv-Fc; also called BC3B115.001; B2089 HL NtoS
# B8: BC3B117 (bispecific antibody, human IgG1, kappa, L234A L235A)
# chain: B4 chain with L46W, M174I, Q232A
# heavy: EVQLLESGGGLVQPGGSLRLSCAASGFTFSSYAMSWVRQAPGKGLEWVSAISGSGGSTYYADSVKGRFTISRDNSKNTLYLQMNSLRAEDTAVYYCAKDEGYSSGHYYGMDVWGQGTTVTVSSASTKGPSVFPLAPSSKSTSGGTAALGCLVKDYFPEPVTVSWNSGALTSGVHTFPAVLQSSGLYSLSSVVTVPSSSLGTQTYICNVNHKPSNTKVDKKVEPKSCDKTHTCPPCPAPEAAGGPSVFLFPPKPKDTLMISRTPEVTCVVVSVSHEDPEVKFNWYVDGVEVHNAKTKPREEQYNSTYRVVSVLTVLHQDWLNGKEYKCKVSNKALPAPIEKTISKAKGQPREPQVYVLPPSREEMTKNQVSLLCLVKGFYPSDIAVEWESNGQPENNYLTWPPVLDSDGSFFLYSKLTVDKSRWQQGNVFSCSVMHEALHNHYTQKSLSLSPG
# light: B3 light
# notes: IgG1 BCMAxCD3; HC1: CD3B2030-N106A LH scFv-Fc; also called BC3B117.001; B2030 LH NtoA
# B9: BC3B121 (bispecific antibody, human IgG1, kappa, L234A L235A)
# chain: B4 chain with Q232A
# heavy: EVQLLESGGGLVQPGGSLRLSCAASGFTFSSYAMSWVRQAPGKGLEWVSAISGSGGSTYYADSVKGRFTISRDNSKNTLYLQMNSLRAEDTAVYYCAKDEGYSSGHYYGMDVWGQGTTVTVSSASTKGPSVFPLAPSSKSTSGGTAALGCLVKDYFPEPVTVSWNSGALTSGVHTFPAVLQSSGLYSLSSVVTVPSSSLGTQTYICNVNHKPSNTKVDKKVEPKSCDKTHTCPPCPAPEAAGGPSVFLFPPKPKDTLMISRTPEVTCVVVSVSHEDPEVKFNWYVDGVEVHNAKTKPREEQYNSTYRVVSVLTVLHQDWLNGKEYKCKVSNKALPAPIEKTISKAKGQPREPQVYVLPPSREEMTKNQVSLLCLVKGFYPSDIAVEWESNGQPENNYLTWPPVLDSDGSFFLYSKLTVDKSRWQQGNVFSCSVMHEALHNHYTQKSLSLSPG
# light: B3 light
# notes: IgG1 BCMAxCD3; HC1: CD3B2051-N106A LH scFv-Fc; also called BC3B121.001; B2051 LH NtoA
# B10: BC3B53 (bispecific antibody, human IgG1, kappa, L234A L235A)
# chain: B4 chain with L46W, M174I
# heavy: not shown
# light: B3 light
# notes: IgG1 BCMAxCD3; HC1: CD3B2030-N106Q LH scFv-Fc; also called BC3B53.001; B2030 LH NtoQ
# B11: BC3B126 (bispecific antibody, human IgG1, kappa, L234A L235A)
# chain: B4 chain with L46W, K164R, N187A, Q232A
# heavy: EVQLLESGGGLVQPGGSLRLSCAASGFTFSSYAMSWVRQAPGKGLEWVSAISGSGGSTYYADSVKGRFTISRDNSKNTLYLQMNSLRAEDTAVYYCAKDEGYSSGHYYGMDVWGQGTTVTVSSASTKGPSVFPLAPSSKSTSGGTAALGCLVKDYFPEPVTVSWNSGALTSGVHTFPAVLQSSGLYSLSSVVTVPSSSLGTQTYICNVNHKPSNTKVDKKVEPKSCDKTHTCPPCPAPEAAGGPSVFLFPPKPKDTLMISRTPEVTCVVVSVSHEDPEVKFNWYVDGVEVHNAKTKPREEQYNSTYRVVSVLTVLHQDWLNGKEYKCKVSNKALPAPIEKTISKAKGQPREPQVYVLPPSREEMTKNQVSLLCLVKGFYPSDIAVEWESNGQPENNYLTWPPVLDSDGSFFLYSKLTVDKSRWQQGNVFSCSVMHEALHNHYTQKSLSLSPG
# light: B3 light
# notes: IgG1 BCMAxCD3; HC1: CD3B2089-N106A LH scFv-Fc; also called BC3B126.001; B2089 LH NtoA
# B12: BC3B127 (bispecific antibody, human IgG1, kappa, L234A L235A)
# chain: B4 chain with L46W, K164R, N187A, Q232G
# heavy: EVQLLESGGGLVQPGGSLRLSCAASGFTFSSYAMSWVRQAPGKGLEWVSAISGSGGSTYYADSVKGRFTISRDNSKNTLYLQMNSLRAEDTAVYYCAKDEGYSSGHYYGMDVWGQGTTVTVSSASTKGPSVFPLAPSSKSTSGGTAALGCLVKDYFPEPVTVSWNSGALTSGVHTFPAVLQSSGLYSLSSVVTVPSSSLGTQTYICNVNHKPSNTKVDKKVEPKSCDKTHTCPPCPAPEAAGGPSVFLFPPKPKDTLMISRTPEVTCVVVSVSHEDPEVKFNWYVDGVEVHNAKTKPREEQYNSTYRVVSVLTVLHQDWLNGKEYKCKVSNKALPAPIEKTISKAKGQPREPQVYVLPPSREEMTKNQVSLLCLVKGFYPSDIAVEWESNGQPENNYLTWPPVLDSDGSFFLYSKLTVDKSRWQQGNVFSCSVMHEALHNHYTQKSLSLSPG
# light: B3 light
# notes: IgG1 BCMAxCD3; HC1: CD3B2089-N106G LH scFv-Fc; also called BC3B127.001; B2089 LH NtoG
# B13: BC3B119 (bispecific antibody, human IgG1, kappa, L234A L235A)
# chain: B4 chain with L46W, M174I, Q232S
# heavy: not shown
# light: B3 light
# notes: IgG1 BCMAxCD3; HC1: CD3B2030-N106S LH scFv-Fc; also called BC3B119.001; B2030 LH NtoS
# B14: BC3B118 (bispecific antibody, human IgG1, kappa, L234A L235A)
# chain: B4 chain with L46W, M174I, Q232G
# heavy: not shown
# light: B3 light
# notes: IgG1 BCMAxCD3; HC1: CD3B2030-N106G LH scFv-Fc; also called BC3B118.001; B2030 LH NtoG
# Target: T1, human PSMA on prostate cancer cell lines (22RV1, C4-2B) (human, UniProt Q04609 1-750)
# T1 construct: also called PSMA-expressing cell lines
# T1 sequence (Q04609 whole entry): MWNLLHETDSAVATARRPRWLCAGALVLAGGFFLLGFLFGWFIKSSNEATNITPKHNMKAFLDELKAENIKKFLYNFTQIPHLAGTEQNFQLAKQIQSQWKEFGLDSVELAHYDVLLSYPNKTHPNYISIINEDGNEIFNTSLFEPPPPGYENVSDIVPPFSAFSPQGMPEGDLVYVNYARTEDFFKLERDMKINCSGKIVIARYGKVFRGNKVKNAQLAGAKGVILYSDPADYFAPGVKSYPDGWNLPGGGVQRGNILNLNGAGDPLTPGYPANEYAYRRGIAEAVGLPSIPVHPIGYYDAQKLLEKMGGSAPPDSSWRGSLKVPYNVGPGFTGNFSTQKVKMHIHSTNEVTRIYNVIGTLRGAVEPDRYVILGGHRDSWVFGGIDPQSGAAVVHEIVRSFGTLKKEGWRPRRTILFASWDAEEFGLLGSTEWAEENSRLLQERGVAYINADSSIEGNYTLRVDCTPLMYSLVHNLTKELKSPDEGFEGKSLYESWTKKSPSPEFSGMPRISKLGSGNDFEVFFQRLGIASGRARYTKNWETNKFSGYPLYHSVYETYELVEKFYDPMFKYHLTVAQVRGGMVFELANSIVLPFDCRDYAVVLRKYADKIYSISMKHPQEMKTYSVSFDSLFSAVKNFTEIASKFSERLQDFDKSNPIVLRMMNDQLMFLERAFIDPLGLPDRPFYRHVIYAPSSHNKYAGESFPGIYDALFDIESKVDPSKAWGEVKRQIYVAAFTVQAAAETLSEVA
# Assay: flow cytometry on C4-2B cells
# Description: (§1) 22RV1 and C4-2B cells were plated at 50,000 cells per well in 50 μl of assay medium (RPMI, 10% HI FBS) in V bottom plates. Serial dilutions of antibodies were prepared in assay medium with 50 μl of antibody dilutions added to the plates containing cells. The plates were incubated for 60 min at 37° C. at which time 100 μl of staining buffer (Becton Dickinson Cat #554657) was added to all wells of each plate. The plates were centrifuged at 300×G for 5 minutes and the medium was removed from the wells. 200 μl of staining buffer was added to all wells of each plate. The plates were centrifuged at 300× G for 5 minutes and the medium was removed from the wells. 50 μl of 2 μg/ml AlexaFluor647-labeled goat anti-human Fc was added to all wells of the plates and the plates were incubated for 30 minutes at 4° C. 150 μl of staining buffer was added to all wells of each plate. The plates were centrifuged at 300× G for 5 minutes and the medium was removed from the wells.
row,Binder,EC50
1,B1,60 nM
2,B2,4.56 nM

# Target: T2, Human CD3 epsilon (CD3ε), on primary human pan T cells (human, UniProt P07766 23-207)
# T2 sequence (P07766 23-207 limits assumed): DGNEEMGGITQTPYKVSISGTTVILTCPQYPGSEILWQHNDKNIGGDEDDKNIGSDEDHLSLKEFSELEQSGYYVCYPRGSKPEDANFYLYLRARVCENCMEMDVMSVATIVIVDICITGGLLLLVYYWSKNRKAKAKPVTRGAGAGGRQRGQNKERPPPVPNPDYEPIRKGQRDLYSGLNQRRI
# Assay: cell-based or functional assay
row,Binder,H929 Killing EC50
1,B3,0.0126 nM
2,B4,0.069 nM
3,B5,0.0354 nM
4,B6,4.36 nM
5,B7,0.155 nM
6,B8,0.149 nM
7,B9,0.1 nM
8,B10,0.0278 nM
9,B11,0.182 nM
10,B12,0.806 nM
11,B13,10 nM
12,B14,0.745 nM

# Target: T3, recombinant human PSMA (human, UniProt Q04609 44-750)
# T3 construct: also called hu PSMA; prostate-specific membrane antigen
# Assay: SPR (Biacore 8K), antibody captured on anti-Fc, PSMA in solution
# Description: The binding affinity of anti-PSMA to the recombinant human, cynomolgus or mouse PSMA was determined by surface plasmon resonance (SPR) using a Biacore 8K instrument\. […] The association and dissociation were monitored for 3 and 15 minutes, respectively, using a flow rate of 50 μL/min. Raw binding data was referenced by subtracting the analyte binding signals from blanks and analyzed using a 1:1 Langmuir binding model using the Biacore Insight evaluation software to obtain the kinetics which were used to calculate the binding affinity. The anti-PSMA were captured using an anti-human Fc antibody and the antigens were injected in solution.
row,Binder,Kd
1,B2,≤ 0.24 nM

# Target: T2, Human CD3 epsilon (CD3ε), on primary …
# Assay: flow cytometry on human T cells, anti-human IgG Fc A647 detection
# Outline: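 Cryopreserved primary human pan T cells (50,000/well) incubated 1 hr at 37 °C with serially diluted bispecific antibodies; bound antibody detected with A647 anti-human IgG Fc (2 ug/mL, 30 min on ice). Read by iQue flow cytometry, gated on singlets and SYTOX green-negative live cells; secondary-alone wells as background.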
row,Binder,EC50
1,B3,3.2 nM
2,B4,65 nM
3,B5,42.9 nM
4,B6,300 nM
5,B7,24 nM
6,B8,60.9 nM
7,B9,73.3 nM
8,B10,19.6 nM
9,B11,177 nM
10,B12,300 nM
11,B13,300 nM
12,B14,257 nM

# Target: T1, human PSMA on prostate cancer cell …
# Assay: flow cytometry on 22RV1 cells
# Description: as §1
row,Binder,EC50
1,B1,60 nM
2,B2,3.42 nM

# Target: T2, Human CD3 epsilon (CD3ε), on primary …
# Assay: cell-based or functional assay
# Remark: another data set of the same source
row,Binder,"EC50, Cytotoxicity"
1,B3,0.0126 nM
2,B4,0.069 nM
3,B5,0.0354 nM
4,B6,4.36 nM
5,B7,0.155 nM
6,B8,0.149 nM
7,B9,0.1 nM
8,B10,0.0278 nM
9,B11,0.182 nM
10,B12,0.806 nM
11,B13,10 nM
12,B14,0.745 nM
